Key:
[1] = target: human PD-L1 (full-length, expressed on cells) (human) (UniProt Q9NZQ7); assay: immunoreactivity, Study 3: 20 ng 89Zr antibody on 15x10^6 MC38-cOVA/eGFP-mPD-L1-/-hPD-L1Tg cells, gamma counter
[2] = target: human PD-L1 (full-length, expressed on cells) (human) (UniProt Q9NZQ7); assay: immunoreactivity, Study 3: LOX-IMVI cells (endogenous human PD-L1), cell-bound activity against standards
[3] = target: human PD-L1 (full-length, expressed on cells) (human) (UniProt Q9NZQ7); assay: immunoreactivity, Study 3: 20 ng 89Zr antibody on 30x10^6 LOX-IMVI cells (endogenous human PD-L1), gamma counter
[4] = target: human PD-L1 (full-length, expressed on cells) (human) (UniProt Q9NZQ7); assay: immunoreactivity, Study 3: MC38-cOVA/eGFP-mPD-L1-/-hPD-L1Tg cells, cell-bound activity against standards
[5] = target: human PD-L1 (full-length, expressed on cells) (human) (UniProt Q9NZQ7); assay: immunoreactivity, Study 1: 20 ng 89Zr antibody on 15x10^6 MC38-cOVA/eGFP-mPD-L1-/-hPD-L1Tg cells, gamma counter
[6] = target: human PD-L1 (full-length, expressed on cells) (human) (UniProt Q9NZQ7); assay: immunoreactivity on MC38/mPD-L1-/-/hPD-L1 cells
[7] = target: human PD-L1 (full-length, expressed on cells) (human) (UniProt Q9NZQ7); assay: immunoreactivity, Study 1: MC38-cOVA/eGFP-mPD-L1-/-hPD-L1Tg cells, cell-bound activity against standards
[8] = target: human PD-L1 (full-length, expressed on cells) (human) (UniProt Q9NZQ7); assay: flow cytometry, ex vivo LOX-IMVI tumor cells (Tumor 1) ~3 weeks post implantation in nude mice, antibody at 20 ug/mL
[9] = target: human PD-L1 (full-length, expressed on cells) (human) (UniProt Q9NZQ7); assay: flow cytometry, ex vivo LOX-IMVI tumor cells (Tumor 2) ~3 weeks post implantation in nude mice, antibody at 20 ug/mL
[10] = target: human PD-L1 (full-length, expressed on cells) (human) (UniProt Q9NZQ7); assay: flow cytometry, dose titration of staining on LOX-IMVI cells treated overnight with 100 ng/mL hIFNγ
[11] = target: human PD-L1 (full-length, expressed on cells) (human) (UniProt Q9NZQ7); assay: flow cytometry, dose titration of staining on untreated MC38-cOVA/eGFP-mPD-L1-/-hPD-L1Tg cells
[12] = target: human PD-L1 (full-length, expressed on cells) (human) (UniProt Q9NZQ7); assay: flow cytometry, dose titration of staining on untreated LOX-IMVI cells
[13] = target: human PD-L1 (full-length, expressed on cells) (human) (UniProt Q9NZQ7); assay: flow cytometry, ex vivo MC38-cOVA/eGFP-mPD-L1-/-hPD-L1Tg tumor cells (Tumor 1) ~3 weeks post implantation in nude mice, antibody at 20 ug/mL
[14] = target: human PD-L1 (full-length, expressed on cells) (human) (UniProt Q9NZQ7); assay: flow cytometry, ex vivo MC38-cOVA/eGFP-mPD-L1-/-hPD-L1Tg tumor cells (Tumor 2) ~3 weeks post implantation in nude mice, antibody at 20 ug/mL
[15] = target: human PD-L1 (full-length, expressed on cells) (human) (UniProt Q9NZQ7); assay: flow cytometry, dose titration of staining on MC38-cOVA/eGFP-mPD-L1-/-hPD-L1Tg cells treated overnight with 100 ng/mL mIFNγ
[16] = target: human PD-L1 (full-length, expressed on cells) (human) (UniProt Q9NZQ7); assay: flow cytometry, dose titration on LOX-IMVI and MC38-cOVA/eGFP-mPD-L1-/-hPD-L1Tg cells with or without IFNgamma

UniProt Q9NZQ7, sequence (Q9NZQ7 19-290): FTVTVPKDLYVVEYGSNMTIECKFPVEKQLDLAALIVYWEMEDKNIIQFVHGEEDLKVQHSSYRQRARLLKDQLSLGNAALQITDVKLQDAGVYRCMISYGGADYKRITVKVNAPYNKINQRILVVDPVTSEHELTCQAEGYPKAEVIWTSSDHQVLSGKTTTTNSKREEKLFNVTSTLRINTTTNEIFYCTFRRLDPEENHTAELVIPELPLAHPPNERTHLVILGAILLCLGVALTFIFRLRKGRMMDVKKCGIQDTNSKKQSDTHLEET

Substance	cell pellet activity [1]	Percent IR (immunoreactivity) [2]	cell pellet activity [3]	Percent IR (immunoreactivity) [4]	cell pellet activity [5]	Immunoreactivity [6]	Percent IR (immunoreactivity) [7]	Mean fluorescence intensity [8]	Mean fluorescence intensity [9]	EC50 (read off the curve) [10]	EC50 (read off the curve) [11]	EC50 (read off the curve) [12]	Mean fluorescence intensity [13]	Mean fluorescence intensity [14]	EC50 (read off the curve) [15]	antibody concentration at which median fluorescence intensity reached the plateau [16]
89Zr labeled DFO-conjugated isotype control antibody	68	0.7%	65.4	0.7%	29.6	8.8%	0.5%									
fluorochrome directly conjugated anti-human PD-L1 antibody (eBioscience, clone MIH1)								8480	12100	20 nM	30 nM	20 nM	49600	51400	30 nM	150 nM

Source: patent US20260151521A1
